{"source": "the DeepSol protein solubility set", "data": [{"experiment": "soluble on expression in E. coli; label from the status in PepcDB or PDB records", "values": [{"sequence": "MGFIMLLRSRFLKVIHVRKQLSACSRFAIQTQTRCKSTDASEDEVKHFQELAPTWWDTDGSQRILHKMNLTRLDFVQRTVRNQVKIQNPEIFVPGFNYKEFLPEYVCDNIQREMQESIETNLDKRPEVSVLDVGCGGGILSESLARLKWVKNVQGIDLTRDCIMVAKEHAKKDPMLEGKINYECKALEDVTGQFDIITCMEMLEHVDMPSEILRHCWSRLNPEKGILFLSTINRDLISWFTTIFMGENVLKIVPKGTHHLSKYINSKEILAWFNDNYSGQFRLLDLKGTMYLPYQGWVEHDCSDVGNYFMAIQRLN", "soluble on expression in E. coli": "not soluble"}, {"sequence": "MGSDKIHHHHHHMSHLALQPGFDFQQAGKEVLEIEREGLAELDQYINQHFTLACEKMFNCTGKVVVMGMGKSGHIGRKMAATFASTGTSSFFVHPGEAAHGDLGMVTPQDVVIAISNSGESSEIAALIPVLKRLHVPLICITGRPESSMARAADVHLCVKVPKEACPLGLAPTSSTTATLVMGDALAVALLKARGFTAEDFALSHPGGALGRKLLLRVSDIMHTGDEIPHVNKHATLRDALLEITRKNLGMTVICDESMKIDGIFTDGDLRRVFDMGGDMRQLGIAEVMTPGGIRVRPGILAVDALNLMQSRHITSVLVADGDQLLGVLHMHDLLRAGVV", "soluble on expression in E. coli": "not soluble"}, {"sequence": "MKEMVGGCCVCADENGWTDNPLIYCDGENCEVAVHQGCYGIQEVPEGEWFCAKCTKASAMMPGSINEATFCCQLCPFDYGALKKTDRNGWAHVICALYIPEVRFGNVHSMEPVILNDVPTDKFNKLCYICNEERPNDAKKGACMSCNKSTCKRSFHVTCAQRKGLLCEEGAISRNVKYCGYCENHLKKAINDPAIKVIPACPPVQRLSKEQDKKKTVLLTSLPLPPPAPRLHMLADPLPIKSNKVNNVLGLGSAINAVSLEERPASGSTVNSGIFVPPPTAFSPPLTTSSRSSVAQDPSPPLTINKNSLSSSGPLIPSTAHLSATTASATPIMANGSTLPPSSETTVGTHCLQQLQIQSAAAAAITQNQIGPSELNGYPAASQLSSFMHEIPARNTTSVASLLPPGAAEYHLNGSGDEEKTVKAVLTAPLTKAKRIRDSKNDMMDKTHKRPRANARPPAVLGSMSSGSSGGTVGKSPSMQRLQNLVAPIVSETVTDFQRDRVADRTAAERRAAAAQSQPSTSTNGGPNVTIPAVVEVHTNSTNSTNHQNNGLTQNAPASTSMQAGTSSNDGVISQNGTSSTSQSNRLNLPSFMEQLLERQWDQGSSLLMANAHFDVAQLLSCLFQLKSENFRLEENLSGLRKRRDHLFALNSRLAEVNTLDVSKRQRSDGLLLQQQIAHHLDPTSIVPKAEVHKQEPLSAPTSVPLPANHSSSLFEDIKAPKATYSRKTPSNIPLTVPLSTAATALTTTTAASSGAPVNSNIQNHRATPSTAGAPMAATPIMTAVTSANELAALSPERAQALLNMYRMPLDANVAAQLSMITNFPGQVNPSLFSRLLAVNMMNGGLQPNGQPLSALPPPTSATPNGK", "soluble on expression in E. coli": "soluble"}, {"sequence": "MPNDMTHIDKIQALAFSIGKKMQTELLEQMQATGLTPPQFYILKILDHYGASRATTLAKKMYVKPSAITVMIDRLIDQELVERYHDKDDRRVVIIELTKKGKARVEEAMTARNEHIAKYFSHLELQEREDLLRLFEKLETIICGTQEKKENN", "soluble on expression in E. coli": "not soluble"}, {"sequence": "MNVDARVGVAVDGAQSALNTATTVHSSVVMTQIKPQAKLGTFQNLLAGGIAGAISKTCTAPLARLTILFQLQGMQSEGAVLSRPNLRREASRIINEEGYRAFWKGNLVTVVHRIPYTAVNFYAYEKYNLFFNSNPVVQSFIGNTSGNPIVHFVSGGLAGITAATATYPLDLVRTRLAAQRNAIYYQGIEHTFRTICREEGILGLYKGLGATLLGVGPSLAINFAAYESMKLFWHSHRPNDSDLVVSLVSGGLAGAVSSTDDKLFDAHNYVATYPLDLVRRRMQVEGAGGRARVYNTGLFGTFKHIFKSEGFKGIYRGILPEYYKVVPGVGIVFMTYDALRRLLTSLPD", "soluble on expression in E. coli": "soluble"}, {"sequence": "MTFEKIEEAYQLLLENCQLIENDLKTHIYDAIVEQNSFYLGAEGASPQVAQNSDKLKALCLTKEEWRKAYQFLFIKAAQTEQLQANHQFTPDAIGFILLYLLEQLSDKDSLEVLEIGSGTGNLAQTLLNNTSKSLDYVGIELDDLLIDLSASIAEIMDSSAHFIQEDAVRPQLLKESDIVISDLPVGYYPNDDIAKRYKVASSDKHTYAHHLLMEQSLKYLKKDGFAIFLAPVNLLTSPQSQLLKQWLKDYAQVVTLITLPDSIFGHPSNAKSIIVLQKQTDHPMETFVYPIRDLKLAENIHDFMENFKKWKLSNVN", "soluble on expression in E. coli": "not soluble"}, {"sequence": "MSLCRVLRVKHSSYYDWLSRDISEQQIHRNHCELLVKAAHSETHERYGVERLHAHLSEQGHNISPYMVRSIKEEYSIKCRRHKRFKVTTDSNHNKLVYPNVLDQEFDASRPNQAWASDITYIWTLEGWLYLAGVKDLYTKELVGYAINKRMTADLVCKALNMAIKNKQPSKGLVVHSDRGSQYCSHAYHKIIKQHQFTGSMSGKGNCFDNAPIESFWGILKNELVYHQDYKTRFAAIRDIIGYIELYYNQTRIQKGLGYKSPRQVWFDYYRQAAEGHHHHHH", "soluble on expression in E. coli": "soluble"}, {"sequence": "MLRLLLLCWLCGVSFIGGAQELRVKDTASLTQALVQAQDGDTLVLDTAVYEGNFSVTRSIHIKGEAGATLDAQRQGSALTITAPKVIVEGLNIRHWGRDLYYHDAGILLLPGADEVLIKGNRFVGDGFGIYGEQLASPRIIENSISGNGAIYVLDRGDGIFLKHVTAPDVQQNHIIFVRDGVYLESVTDSKIHHNQFAKLQYGIHYMYTRGDEASQNQATSVDGGYALMNSQQIYLHHNRVSQARDFGILLNITNDSHVQANIATEVQHPQGSVELGNEGKGIFIYAAQNNRIEDNEFSQSDTGISMAMGGEANRLWHNRILGNQTQVKYVGEAQLEWSYQGQGNYWSEYRGWDTNGDGVGDIAHRPNDSLDKLFWLYPEAKLLMESPVVLLLRWVERQFQPTSISGVSDSFPLMRLITEGDGIAAALEHHHHHH", "soluble on expression in E. coli": "soluble"}, {"sequence": "AEVRPPFTYASLIRQAILESPEKQLTLNEIYNWFTRMFPYFRRNAATWKNAVRHNLSLHKYFVRVENVKGAVWTVDEVEFQKRRPQK", "soluble on expression in E. coli": "soluble"}, {"sequence": "MGSDKIHHHHHHMVGCLTLTLLVGCSAAEKPVEQVKQVKNTLTAKLATEEKMIEIDGQTIYFKKIGNEKPPLLMIHGFGGSSDGFQKIYSDLAKNHTIISVDALGFGRSSKPMDFYYSFPTHANLYYKLMKKLGYDSFAILGHSMGGEISLNLTYLYPEAVTHLILTDATGGPHTLVNKQGSPRPQLSTDLNTVSAITDYDESKVKFKRNDEEHYNKMKLWPRRLQINADEIKQPTLIIWGRNDSSVSWEEGETYHQFFKNSTFHIIEKGYHAPFRQEPQEFVGYVKDFFDKNPIIAEK", "soluble on expression in E. coli": "not soluble"}, {"sequence": "MAKVLVLYYSMYGHIETMARAVAEGASKVDGAEVVVKRVPETMPPQLFEKAGGKTQTAPVATPQELADYDAIIFGTPTRFGNMSGQMRTFLDQTGGLWASGALYGKLASVFSSTGTGGGQEQTITSTWTTLAHHGMVIVPIGYAAQELFDVSQVRGGTPYGATTIAGGDGSRQPSQEELSIARYQGEYVAGLAVKLNG", "soluble on expression in E. coli": "soluble"}, {"sequence": "MSLSEVQPIPVTVSQYSYYSDKNYPKRRTMEDAHVICDPLIEVEGRVYSLYAIFDGHRGRTAAQHCAKIVKDKIKEVLQRKDEGFEEMMQDAMYEMDMSLKENGIEYSGCCALMCIIEIKDKKRIIHMANCGDSCGIIIGTNEVIPMSEEHKATNENEAKRIKESGGMIINGRVSGDVAVTRGLGDHHLKQWVVSEPFVKEVEWQEDYKYIVLGCDGLWDTLNGNQIKEVLESNNCEFTSSAKSLTQLAIGKGSTDNITTIVLKLEGHHHHHH", "soluble on expression in E. coli": "soluble"}, {"sequence": "MGHHHHHHSHDRVNGVAKEYVIYGYGEPLLYPDFFKRIEGFDGKVVISTNGMLDSDILDLADKVGVSIDVNDKFRKGLEVEKALEVLRKLGERGIAEVVVTKDNLELLPAFFERIAEHGSGMLATNVVASNPAIYEQGVYFECSRITVEKVLGLDESILVEAIKDCSRGGGEALRRYKHLLKEVYSKGYSINLLAIFGRKGRVETAFKA", "soluble on expression in E. coli": "soluble"}, {"sequence": "MPKTQSAAGYKAGVKDYKLTYYTPDYTPKDTDLLAAFRFSPQPGVPADEAGAAIAAESSTGTWTTVWTDLLTDMDRYKGKCYHIEPVQGEENSYFAFIAYPLDLFEEGSVTNILTSIVGNVFGFKAIRSLRLEDIRFPVALVKTFQGPPHGIQVERDLLNKYGRPMLGCTIKPKLGLSAKNYGRAVYECLRGGLDFTKDDENINSQPFQRWRDRFLFVADAIHKSQAETGEIKGHYLNVTAPTCEEMMKRAEFAKELGMPIIMHDFLTAGFTANTTLAKWCRDNGVLLHIHRAMHAVIDRQRNHGIHFRVLAKCLRLSGGDHLHSGTVVGKLEGDKASTLGFVDLMREDHIEADRSRGVFFTQDWASMPGVLPVASGGIHVWHMPALVEIFGDDSVLQFGGGTLGHPWGNAPGATANRVALEACVQARNEGRDLYREGGDILREAGKWSPELAAALDLWKEIKFEFETMDKL", "soluble on expression in E. coli": "soluble"}, {"sequence": "MGSDKIHHHHHHMTDKLLKQHKRLLEQQHKLPYTINLSGEVFTIIIYTKLSKVAGVTVLNSQEEPATVKEAEAVVNRIQKYNFYFEYLGKRAHVIKERDSIIAEKIEQTQLILNDNTIFGEKMQPTIDELNLAMEVYKQQQRKMDVYQEDITLLNQKIKMQGEILEEDWESAENLSIAFAKAAYAQSIYLEATRKNRKQLAKWFHLHQKELPTDKQKALSKMVSVLSDTNAGLVFDQIISLRPLLEEGLMLDHEQSLTQRAAEFNKEFETHCRFYKPNINKVKNLIRQ", "soluble on expression in E. coli": "not soluble"}, {"sequence": "MNLKDMEQNSAKAVVLLKAMANERRLQILCMLHNQELSVGELCAKLQLSQSALSQHLAWLRRDGLVTTRKEAQTVYYTLKSEEVKAMIKLLHSLYCEE", "soluble on expression in E. coli": "soluble"}, {"sequence": "MNQEKLDLRKSAADDTHSGAAFAFQALTPDLILDAIESLGVYPETGLLALNSYENRVYQFRSDEGQRYVVKFYRPDRWSDAQIQEEHDFALALAEQEIPMAVPTAVQGHTLHHFQGFRFALFPSIGGRAFEVDNLEQLEFVGRFIGRMHQYGAQSVFQAREPLNPQILGDEPLAWLKQSELVPTSLRVAFFTVVEQVLAKVNTLWAQQRFKPIRLHGDLHPGNILWTPDGPGFVDLDDARMGPAIQDLWMMLTGDRAQQQLQLEVLLEAYEEFCEFDTRQLALIEPLRALRMVHYNAWIGRRWQDPAFPMHFPWFGDEKYWEQQILAFKEQLAALDEPPLSLIPY", "soluble on expression in E. coli": "not soluble"}, {"sequence": "MGSDKIHHHHHHMTISIPDTLTTDNSEKYIVSIRLRSGGLSFSGYDPSAGGSFFYRETEFDRAVSFISSLKEFFFAHEFLTWTYKRINVICVSPEYSLVPDNYWGDGKEGRLLDFSFSTLELHCLTDTLKEQQAKLVFGVDEEVYEFCSRSLLHPFFSHYMTSLLTLWTKESSASLPRQMYVVIERKRMDVACYAQGKLLFVNSYPIDQSDDIVYYILYVWKQAGLDQEKDQLLLAGESSSRMRVLERLRAYLRHVKPVEIPSEAYLLGTDVTKAPMDLISLLICE", "soluble on expression in E. coli": "not soluble"}, {"sequence": "MQCYSIVGINYIQIYKAVTRNGIKHNIVVIKNSDYIFTITHYSPRTEYWTIVGNTDRQFYDANVLHNCLYIIGGMINNRHVYSVSRVDLKTKKWKTVTNMSSLKSEVSTCVNDGKLYVIGGLEFSISTGIAEYLKHGTSKWKRLPNLITPRYSGASVFVNDDIYVMGGVYTTMRNM", "soluble on expression in E. coli": "not soluble"}, {"sequence": "MGSDKIHHHHHHMITVSIVTYKTNLGELSKCLQSLISSLVSQIYIVDNSNERYIADFCQQYPNVIYIGSENVGYGAGHNQALRQVLNSGGKYHLILNSDVYFEPSVLEFLAAYMDAHADVAQVQPNVVYPDGEQQYTCRLLPTPANLIFRRFLPKRMVEKMNIRYQLKFDDHKKEMNVPYHQGSFMFFRLECFKKVGLFDERFFMYPEDIDITRRMHKWYRTMFVPSVTIVHAHRAASYKSKKMLKIHMVNMIKYFNKWGWIVDKERSAWNRKLLEELGYKK", "soluble on expression in E. coli": "not soluble"}]}]}
